Measurements reported in article PMC11417369, “DNA sequence and chromatin differentiate sequence-specific transcription factor binding in the human malaria parasite Plasmodium falciparum”.

How the values were obtained:
Assay in all cases: gcPBM; about 25 ug protein; PBS, 1% milk, 0.2 mg/ml BSA, salmon testes DNA, 0.03% Triton X-100
Conditions in all cases: tags: N-terminal GST (pGEX-4T-1), kept; label: surface-attached array probe
AP2-HC D1 = biological target: T1, AP2-HC D1 (Plasmodium falciparum, UniProt Q8IKR9 1316-1374)
T1 sequence: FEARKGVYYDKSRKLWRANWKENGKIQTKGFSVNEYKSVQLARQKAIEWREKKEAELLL

PF3D7_0420300 D1 = biological target: T2, PF3D7_0420300 D1 (Plasmodium falciparum, UniProt Q8I1N6 1956-2015)
T2 sequence: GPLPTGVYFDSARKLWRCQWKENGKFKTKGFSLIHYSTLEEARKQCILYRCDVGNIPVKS

AP2-LT D1 = biological target: T3, AP2-LT D1 (Plasmodium falciparum, UniProt Q8IAM1 2520-2577)
T3 sequence: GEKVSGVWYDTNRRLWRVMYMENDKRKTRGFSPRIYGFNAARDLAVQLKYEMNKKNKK

Binder	binding signal (AP2-HC D1)	binding signal (PF3D7_0420300 D1)	binding signal (AP2-LT D1)
CACACA_negctrl_site1235 (dsDNA) DNA 1: TTTAAAAAAAAAAAAAAAAAAAAAAAAAAAAATTTG DNA 2: CAAATTTTTTTTTTTTTTTTTTTTTTTTTTTTTAAA	9.1 ln median PBM intensity, better of two orientations	8.59 ln median PBM intensity, better of two orientations	–
CACACA_negctrl_site1092 (dsDNA) DNA 1: TCAAAATGTGACATAAAAGAAAAAAAAAAAAAAAAA DNA 2: TTTTTTTTTTTTTTTTTCTTTTATGTCACATTTTGA	9 ln median PBM intensity, better of two orientations	8.62 ln median PBM intensity, better of two orientations	–
CACACA_negctrl_site680 (dsDNA) DNA 1: AACACTCAAAAAAATTTAAATAAAAAAAAAAAAAAA DNA 2: TTTTTTTTTTTTTTTATTTAAATTTTTTTGAGTGTT	9.05 ln median PBM intensity, better of two orientations	8.7 ln median PBM intensity, better of two orientations	–
CACACA_negctrl_site1152 (dsDNA) DNA 1: TCATATTTGCCTTTTTATTTAGAACACAAAAAAAAA DNA 2: TTTTTTTTTGTGTTCTAAATAAAAAGGCAAATATGA	9.29 ln median PBM intensity, better of two orientations	8.77 ln median PBM intensity, better of two orientations	–
CACACA_negctrl_site148 (dsDNA) DNA 1: TTTTTGATGAAATATTATTTTCCTGACTTGGATTAA DNA 2: TTAATCCAAGTCAGGAAAATAATATTTCATCAAAAA	9.49 ln median PBM intensity, better of two orientations	8.86 ln median PBM intensity, better of two orientations	–
CACACA_negctrl_site272 (dsDNA) DNA 1: TACCTTTCTTATTATTGAAAAGGAATATATAAATAG DNA 2: CTATTTATATATTCCTTTTCAATAATAAGAAAGGTA	9.13 ln median PBM intensity, better of two orientations	8.89 ln median PBM intensity, better of two orientations	–
CACACA_negctrl_site1096 (dsDNA) DNA 1: ATTATATTCTTTACTACCAATTAGTAGAAAATAAAA DNA 2: TTTTATTTTCTACTAATTGGTAGTAAAGAATATAAT	9.31 ln median PBM intensity, better of two orientations	8.9 ln median PBM intensity, better of two orientations	–
CACACA_negctrl_site49 (dsDNA) DNA 1: AATATATAAATATATATAAATAAATATATATATAAA DNA 2: TTTATATATATATTTATTTATATATATTTATATATT	9.5 ln median PBM intensity, better of two orientations	8.92 ln median PBM intensity, better of two orientations	–
CACACA_negctrl_site1139 (dsDNA) DNA 1: ATTTTTTTTTTTTTTATTCCCCTTTCGAAAAAAACC DNA 2: GGTTTTTTTCGAAAGGGGAATAAAAAAAAAAAAAAT	9.47 ln median PBM intensity, better of two orientations	9.05 ln median PBM intensity, better of two orientations	–
CACACA_negctrl_site1564 (dsDNA) DNA 1: AAAATGTCCCGTAGAAAATAAATTTATTACGCAATA DNA 2: TATTGCGTAATAAATTTATTTTCTACGGGACATTTT	9.41 ln median PBM intensity, better of two orientations	9.06 ln median PBM intensity, better of two orientations	–
CACACA_site8345 (dsDNA) DNA 1: AATACCCAAGGACACACACACACATATATATATATA DNA 2: TATATATATATATGTGTGTGTGTGTCCTTGGGTATT	11.8 ln median PBM intensity, better of two orientations	–	10.8 ln median PBM intensity, better of two orientations
CACACA_site2431 (dsDNA) DNA 1: AACAAACACAGACACACACACACACCCAAATGATTA DNA 2: TAATCATTTGGGTGTGTGTGTGTGTCTGTGTTTGTT	11.7 ln median PBM intensity, better of two orientations	–	10.8 ln median PBM intensity, better of two orientations
CACACA_site362 (dsDNA) DNA 1: CACCCACACCAACACACACACATATATATATATATA DNA 2: TATATATATATATATGTGTGTGTGTTGGTGTGGGTG	11.7 ln median PBM intensity, better of two orientations	–	10.8 ln median PBM intensity, better of two orientations
CACACA_site4721 (dsDNA) DNA 1: AACATTATAGGACACACACACACATATATATATATA DNA 2: TATATATATATATGTGTGTGTGTGTCCTATAATGTT	11.9 ln median PBM intensity, better of two orientations	–	10.7 ln median PBM intensity, better of two orientations
CACACA_site8410 (dsDNA) DNA 1: AAAAAATCACAACACACACACACACTAATAAAAAAA DNA 2: TTTTTTTATTAGTGTGTGTGTGTGTTGTGATTTTTT	12.3 ln median PBM intensity, better of two orientations	–	10.7 ln median PBM intensity, better of two orientations
CACACA_site5576 (dsDNA) DNA 1: AAAAAAAAAAAACACACACACACACCGACACATACA DNA 2: TGTATGTGTCGGTGTGTGTGTGTGTTTTTTTTTTTT	12.5 ln median PBM intensity, better of two orientations	–	10.6 ln median PBM intensity, better of two orientations
CACACA_site2430 (dsDNA) DNA 1: CAAACAAACAGACACACACACACACCCAAAAATGAT DNA 2: ATCATTTTTGGGTGTGTGTGTGTGTCTGTTTGTTTG	12.2 ln median PBM intensity, better of two orientations	–	10.6 ln median PBM intensity, better of two orientations
CACACA_site1724 (dsDNA) DNA 1: TATATACGCAAACACACACACACATACACCCACATA DNA 2: TATGTGGGTGTATGTGTGTGTGTGTTTGCGTATATA	11.9 ln median PBM intensity, better of two orientations	–	10.4 ln median PBM intensity, better of two orientations
CACACA_site7363 (dsDNA) DNA 1: AAAAAAAAAAGACACACACACACACGGACACATACA DNA 2: TGTATGTGTCCGTGTGTGTGTGTGTCTTTTTTTTTT	11.9 ln median PBM intensity, better of two orientations	–	10.2 ln median PBM intensity, better of two orientations

Binder	binding signal (AP2-HC D1)	binding signal (PF3D7_0420300 D1)	binding signal (AP2-LT D1)
CACACA_site7658 (dsDNA) DNA 1: AATAAAAAGGAACACACACACACACGGATATAAATA DNA 2: TATTTATATCCGTGTGTGTGTGTGTTCCTTTTTATT	11.7 ln median PBM intensity, better of two orientations	10.5 ln median PBM intensity, better of two orientations	–
CACACA_site2305 (dsDNA) DNA 1: TTCCCCCCCAGACACACACACACATACATACCACAT DNA 2: ATGTGGTATGTATGTGTGTGTGTGTCTGGGGGGGAA	12.1 ln median PBM intensity, better of two orientations	10.4 ln median PBM intensity, better of two orientations	–
CACACA_site7754 (dsDNA) DNA 1: TAAAATAAAACAAACACACACACACGGACACAAAAA DNA 2: TTTTTGTGTCCGTGTGTGTGTGTTTGTTTTATTTTA	11.9 ln median PBM intensity, better of two orientations	10.4 ln median PBM intensity, better of two orientations	–
CACACA_site365 (dsDNA) DNA 1: CACCCCCACAGACACACACACACACCCACATATATA DNA 2: TATATATGTGGGTGTGTGTGTGTGTCTGTGGGGGTG	10.8 ln median PBM intensity, better of two orientations	10.4 ln median PBM intensity, better of two orientations	–
CACACA_site6215 (dsDNA) DNA 1: AAAAAAAAAAGACACACACACACATAAATATAAATA DNA 2: TATTTATATTTATGTGTGTGTGTGTCTTTTTTTTTT	12.2 ln median PBM intensity, better of two orientations	10.3 ln median PBM intensity, better of two orientations	–
CACACA_site4553 (dsDNA) DNA 1: AAAAAAAGATTATACACACACATATATAAACATACA DNA 2: TGTATGTTTATATATGTGTGTGTATAATCTTTTTTT	10.7 ln median PBM intensity, better of two orientations	10.1 ln median PBM intensity, better of two orientations	–
CACACA_negctrl_site721 (dsDNA) DNA 1: TTTTAAAAAAAATAAAAAATAAACAATAATAAATAA DNA 2: TTATTTATTATTGTTTATTTTTTATTTTTTTTAAAA	9.49 ln median PBM intensity, better of two orientations	–	–
CACACA_negctrl_site842 (dsDNA) DNA 1: ACTAAAAGATATATAATTTCTTTCTTATTTATTTTT DNA 2: AAAAATAAATAAGAAAGAAATTATATATCTTTTAGT	9.49 ln median PBM intensity, better of two orientations	–	–
CACACA_negctrl_site1162 (dsDNA) DNA 1: ACACAAAAAAAAAAAAAAAAAAAAAAAAAAAAGGAA DNA 2: TTCCTTTTTTTTTTTTTTTTTTTTTTTTTTTTGTGT	9.5 ln median PBM intensity, better of two orientations	–	–
CACACA_negctrl_site844 (dsDNA) DNA 1: AATATCATCCTTTTTTTTTATAAAATTTAAAATATA DNA 2: TATATTTTAAATTTTATAAAAAAAAAGGATGATATT	9.5 ln median PBM intensity, better of two orientations	–	–
CACACA_negctrl_site1685 (dsDNA) DNA 1: ATATATATATAAATATAAATATATATATATATATAT DNA 2: ATATATATATATATATATTTATATTTATATATATAT	9.5 ln median PBM intensity, better of two orientations	–	–
CACACA_negctrl_site1512 (dsDNA) DNA 1: ACGAATTAAATGGATTAATATATATATGTATATTTA DNA 2: TAAATATACATATATATATTAATCCATTTAATTCGT	9.5 ln median PBM intensity, better of two orientations	–	–
CACACA_negctrl_site215 (dsDNA) DNA 1: ATAAAATATTATATATATATATATATATATATATAT DNA 2: ATATATATATATATATATATATATATAATATTTTAT	9.5 ln median PBM intensity, better of two orientations	–	–
CACACA_negctrl_site484 (dsDNA) DNA 1: ATTCATATTAAATATATATATATATATATATATATA DNA 2: TATATATATATATATATATATATATTTAATATGAAT	9.51 ln median PBM intensity, better of two orientations	–	–
CACACA_negctrl_site607 (dsDNA) DNA 1: TGTGTCAAGTTTAATAAACGCATATAATATATATGA DNA 2: TCATATATATTATATGCGTTTATTAAACTTGACACA	9.51 ln median PBM intensity, better of two orientations	–	–
CACACA_negctrl_site660 (dsDNA) DNA 1: TTTTCTTAATATTTCGTTTTACATAAACCTTTTAAA DNA 2: TTTAAAAGGTTTATGTAAAACGAAATATTAAGAAAA	9.51 ln median PBM intensity, better of two orientations	–	–
CACACA_negctrl_site1531 (dsDNA) DNA 1: TATTTCCATTCATAATTTTGTAGAATATATAACCGT DNA 2: ACGGTTATATATTCTACAAAATTATGAATGGAAATA	9.51 ln median PBM intensity, better of two orientations	–	–
CACACA_negctrl_site1232 (dsDNA) DNA 1: AATATTTTTCAATTTCATGTGCATTCATTGAAGTTA DNA 2: TAACTTCAATGAATGCACATGAAATTGAAAAATATT	9.51 ln median PBM intensity, better of two orientations	–	–
CACACA_negctrl_site1 (dsDNA) DNA 1: TTTTTTATTGTGATACGTATATTATTTTTTGATAAA DNA 2: TTTATCAAAAAATAATATACGTATCACAATAAAAAA	9.51 ln median PBM intensity, better of two orientations	–	–
